Laboratory results from article PMC2911655.

Substrate: CCCCCCCC/C=C\CCCCCCCC(=O)OCC(O)CO
Test: glycerol release, enzymatic glycerol kit, saturation curve
Format: biochemical, Saccharomyces cerevisiae
Conditions: pH 7.5, 37 °C, 20 min, substrate complexed to defatted BSA 1:1

B1: Yju3p (Saccharomyces cerevisiae S288C) (protein)
chain: MAPYPYKVQTTVPELQYENFDGAKFGYMFWPVQNGTNEVRGRVLLIHGFGEYTKIQFRLMDHLSLNGYESFTFDQRGAGVTSPGRSKGVTDEYHVFNDLEHFVEKNLSECKAKGIPLFMWGHSMGGGICLNYACQGKHKNEISGYIGSGPLIILHPHTMYNKPTQIIAPLLAKFLPRVRIDTGLDLKGITSDKAYRAFLGSDPMSVPLYGSFRQIHDFMQRGAKLYKNENNYIQKNFAKDKPVIIMHGQDDTINDPKGSEKFIQDCPSADKELKLYPGARHSIFSLETDKVFNTVFNDMKQWLDKHTTTEAKP
Km: 260 µM
